According to patent publication US20210284724A1 (I MAB BIOPHARMA US, published 2021):

T1: human CXCL13 (human, UniProt O43927 23-109)
T1 construct: also called huCXCL13; rhCXCL13
T1 sequence (looked up): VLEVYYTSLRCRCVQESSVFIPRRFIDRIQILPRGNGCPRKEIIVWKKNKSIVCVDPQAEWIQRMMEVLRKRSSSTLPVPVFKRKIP


What was measured:
human CXCL13 [1] = target: T1, human CXCL13; assay: SPR Biacore, off-rate ranking of Fabs
human CXCL13 [2] = target: T1, human CXCL13; assay: SPR Biacore 8K, Fab over immobilised CXCL13
Procedure: Among all humanized Fab samples, 71F4A3-VH2VL1, 71F4A3-VH1VL1 (Hz71F4), 71F4A3-VH1VL2, 71F4A3-VH3VL1, 411A11E9-VH1VL4, 411A11E9-VH3VL4, 411A11E9-VH2VL4, 411A11E9-VH3VL2, 411A11E9-VH1VL2, 21H12D9-VH1VL1, 21H12D9-VH2VL2, 21H12D9-VH3VL3, 21H12D9-VH1VL2, 64C10G1-VH1VL3, 64C10G1-VH1VL4, 64C10G1-VH1VL1, 64C10G1-VH1VL2 were selected to test affinity by Biacore 8K. 10 mM HEPES, 150 mM NaCl, 3 mM EDTA, 0.05% Tween-20, pH 7.4 served as running buffer and 10 mM glycine-HCl, pH2.0 served as regeneration buffer. CXCL13 protein were immobilized on Sensor Chip CM5 using amine coupling method (immobilization level ˜250RU). The serial concentrations of Fab (0-20 nM) were injected over immobilized CXCL13 at the flow rate of 30 μl/min. The dissociation phases were 600s.

| Binder | Kd (human CXCL13 [1]) [nM] | koff (human CXCL13 [1]) [s⁻¹] | kon (human CXCL13 [1]) [M⁻¹ s⁻¹] | Kd (human CXCL13 [2]) [nM] | koff (human CXCL13 [2]) [s⁻¹] | kon (human CXCL13 [2]) [M⁻¹ s⁻¹] |
| --- | --- | --- | --- | --- | --- | --- |
| 21H12D9-VH1VL3 (Fab, V domains shown, Humanized Fab, human gamma 1 and kappa constant domains; also called 21VH12D9-VH1VL3) VH: QVQLVQSGAEVKKPGASVKVSCKASGYTFTDYYMNWVRQAPGQGLEWMGVINPNNGGTTYKEKFKGRVTMTRDTSISTAYMELSRLRSDDTAVYYCARDDYDAGYWGQGTLVTVSS VL: DIQMTQSPSSVSTSVGDRVTITCKASQNVDTAVAWYQQKPGKAPKLLIYSASHRYTGVPSRFSGSGSGTDFTLTISSVQPEDFATYYCQQYTDFPLTFGQGTRLEIK | 1.67 | 0.000975 | 584000 | – | – | – |
| 21H12D9-VH4VL1 (Fab, V domains shown, Humanized Fab, human gamma 1 and kappa constant domains; also called 21VH12D9-VH4VL1) VH: QVQLVQSGAEVVKPGASVKMSCKASGYTFTDYYMNWVRQAPGQGLEWIGVINPNNGGTTYKEKFKGRATLTVDTSIGTAYMELSRLRSDDTAVYYCARDDYDAGYWGQGTLLTVSS VL: DIQMTQSPSSVSASVGDRVTITCKASQNVDTAVAWYQQKPGKAPKLLIYSASHRYTGVPSRFSGSGSGTDFTLTISSLQPEDFATYYCQQYTDFPLTFGQGTRLEIK | 1.73 | 0.00107 | 618000 | – | – | – |
| 21H12D9-VH1VL2 (Fab, V domains shown, Humanized Fab, human gamma 1 and kappa constant domains; also called 21VH12D9-VH1VL2) VH: QVQLVQSGAEVKKPGASVKVSCKASGYTFTDYYMNWVRQAPGQGLEWMGVINPNNGGTTYKEKFKGRVTMTRDTSISTAYMELSRLRSDDTAVYYCARDDYDAGYWGQGTLVTVSS VL: DIQMTQSPSSVSTSVGDRVTITCKASQNVDTAVAWYQQKPGKAPKLLIYSASHRYTGVPSRFSGSGSGTDFTLTISSLQPEDFATYYCQQYTDFPLTFGQGTRLEIK | 1.99 | 0.000757 | 380000 | 1.19 | 0.00171 | 1.44e+06 |
| 411A11E9-VH1VL2 (Fab, V domains shown, Humanized Fab, human gamma 1 and kappa constant domains) VH: EVQLVESGGGLVQPGGSLRLSCAASGFTFSDYYMAWVRQAPGKGLEWVASINYDGGDTYYRDSVKGRFTISRDNAKNSLYLQMNSLRAEDTAVYYCAREEDYDGSYVMDAWGQGTLVTVSS VL: DIQMTQSPSSLSASVGDRVTITCKASQNINKELTWYQQKPGKAPKRLIYNTNILQTGVPSRFSGSGSGTEFTLTISSLQPEDFATYFCLQQSSLYTFGQGTKLEIK | 14.5 | 0.00114 | 78200 | 2.83 | 0.00161 | 570000 |
| 411A11E9-VH3VL4 (Fab, V domains shown, Humanized Fab, human gamma 1 and kappa constant domains) VH: EVQLVESGGGLVQPGGSLRLSCAVSGFTFSDYYMAWVRQAPGKGLEWVASINYDGGDTYYRDSVKGRFTISRDNAKNSLYLQMNSLRAEDTAVYYCATEEDYDGSYVMDAWGQGTLVTVSS VL: DIQMTQSPSSLSASVGDRVTITCKASQNINKELTWYQQKPGKAPKRLIYNTNILQTGIPSRFSGSGSGTEYTLTISSLQPEDFATYFCLQQSSLYTFGQGTKLEIK | 0.498 | 0.00109 | 2.19e+06 | 0.908 | 0.000823 | 906000 |
| 411A11E9-VH2VL4 (Fab, V domains shown, Humanized Fab, human gamma 1 and kappa constant domains) VH: EVQLVESGGGLVQPGGSLRLSCAASGFTFSDYYMAWVRQAPGKGLEWVASINYDGGDTYYRDSVKGRFTISRDNAKNSLYLQMNSLRAEDTAVYYCATEEDYDGSYVMDAWGQGTLVTVSS VL: DIQMTQSPSSLSASVGDRVTITCKASQNINKELTWYQQKPGKAPKRLIYNTNILQTGIPSRFSGSGSGTEYTLTISSLQPEDFATYFCLQQSSLYTFGQGTKLEIK | 0.634 | 0.00105 | 1.66e+06 | 0.931 | 0.000887 | 953000 |
| 411A11E9-VH4VL4 (Fab, V domains shown, Humanized Fab, human gamma 1 and kappa constant domains) VH: EVQLVESGGGLVQPGGSLRLSCAVSGFTFSDYYMAWVRQAPGKGLEWVASINYDGGDTYYRDSVKGRFTVSRDNAKNSLYLQMNSLRAEDTAVYYCATEEDYDGSYVMDAWGQGALVTVSS VL: DIQMTQSPSSLSASVGDRVTITCKASQNINKELTWYQQKPGKAPKRLIYNTNILQTGIPSRFSGSGSGTEYTLTISSLQPEDFATYFCLQQSSLYTFGQGTKLEIK | 0.611 | 0.00107 | 1.74e+06 | – | – | – |
| 411A11E9-VH1VL4 (Fab, V domains shown, Humanized Fab, human gamma 1 and kappa constant domains) VH: EVQLVESGGGLVQPGGSLRLSCAASGFTFSDYYMAWVRQAPGKGLEWVASINYDGGDTYYRDSVKGRFTISRDNAKNSLYLQMNSLRAEDTAVYYCAREEDYDGSYVMDAWGQGTLVTVSS VL: DIQMTQSPSSLSASVGDRVTITCKASQNINKELTWYQQKPGKAPKRLIYNTNILQTGIPSRFSGSGSGTEYTLTISSLQPEDFATYFCLQQSSLYTFGQGTKLEIK | 1.82 | 0.00063 | 346000 | 0.844 | 0.00157 | 1.86e+06 |
| 411A11E9-VH3VL2 (Fab, V domains shown, Humanized Fab, human gamma 1 and kappa constant domains) VH: EVQLVESGGGLVQPGGSLRLSCAVSGFTFSDYYMAWVRQAPGKGLEWVASINYDGGDTYYRDSVKGRFTISRDNAKNSLYLQMNSLRAEDTAVYYCATEEDYDGSYVMDAWGQGTLVTVSS VL: DIQMTQSPSSLSASVGDRVTITCKASQNINKELTWYQQKPGKAPKRLIYNTNILQTGVPSRFSGSGSGTEFTLTISSLQPEDFATYFCLQQSSLYTFGQGTKLEIK | 0.919 | 0.00163 | 1.78e+06 | 1.2 | 0.00126 | 1.05e+06 |
